Source: paper PMC7653511 (Journal of immunology (Baltimore, Md. : 1950), 2020)

Legend:
[1] = biological target: HLA-E*01:03 heavy chain with human β2-microglobulin (human); experiment: HPLC size exclusion chromatography peptide competition binding assay
[2] = biological target: HLA-E*01:01 heavy chain with human β2-microglobulin (human); experiment: as above
[3] = biological target: HLA-E*01:03 heavy chain with human β2-microglobulin (human); experiment: HPLC size exclusion chromatograph
[4] = biological target: HLA-E*01:01 heavy chain with human β2-microglobulin (human); experiment: HPLC size exclusion chromatograph
HLA-E = conditions: no reference given; cited from earlier work
[5] = Aggregation of the proteins with norleucine fluorescent standard peptide; assay type: physicochemical; conditions: norleucine vs methionine in position 2 of fluorescent standard peptide
Qa-1^b = Qa-1^b (Mus musculus, UniProt P06339); experiment: UV-mediated peptide exchange binding assay; set-up: species or system mice; conditions: s/p ratio, at least two independent experiments
Mamu-E = assay type: binding, rhesus macaques; conditions: s/p ratio, at least two independent experiments
HLA-E*01:03 = HLA-E*01:03 (Homo sapiens, UniProt P13747); experiment: UV-mediated peptide exchange binding assay; conditions: s/p ratio, at least two independent experiments
HLA-E*01:01 = HLA-E*01:01 (Homo sapiens, UniProt P13747, G128R); experiment: UV-mediated peptide exchange binding assay; conditions: s/p ratio, at least two independent experiments

Substance | Effect of alanine substitution on binding (Qa-1^b) | Effect of alanine substitution on binding (Mamu-E) | Effect of alanine substitution on binding (HLA-E*01:03) | Effect of alanine substitution on binding (HLA-E*01:01) | further results
Qdm (peptide) |  |  |  |  | IC50 [1]: < 100 µM; IC50 [2]: < 100 µM
VL9 (peptide) |  |  |  |  | IC50 [3]: < 100 µM; IC50 [4]: < 100 µM
VLAPRTLLL [pCMV] |  |  |  |  | Known binding to HLA-E of control peptides (HLA-E): high binding capacity to HLA-E
VXAPCTLLL |  |  |  |  | Unspecific aggregation of the proteins [5]: reduced unspecific aggregation of the proteins
pCMV P2-Ala: pCMV with Ala in position 2 (VAAPRTLLL) | considerable loss of binding | considerable loss of binding | considerable loss of binding | considerable loss of binding | 
pCMV P7-Ala: pCMV with Ala in position 7 (VLAPRTALL) | complete or almost complete loss of binding | complete or almost complete loss of binding | complete or almost complete loss of binding | complete or almost complete loss of binding | 
pCMV P9-Ala: pCMV with Ala in position 9 (VLAPRTLLA) | complete or almost complete loss of binding | complete or almost complete loss of binding | complete or almost complete loss of binding | complete or almost complete loss of binding | 
